The values that follow come from paper PMC4728340, “Structure of the polyisoprenyl-phosphate glycosyltransferase GtrB and insights into the mechanism of catalysis” (Nature Communications, 2016).

The data set deals with the molecule itself. Kind of data set: crystal structure; purified protein in n-decyl-beta-D-maltopyranoside (DM); sitting drop vapour diffusion at 22 °C, 16-18% PEG600, 0.12 M Tris/HCl pH 9.0, 0.1 M NaCl, 1 mM TCEP; crystals soaked with 5 mM MnCl2 and 25 mM UDP-glucose; space group C2, one tetramer in the asymmetric unit.

B1: GtrB from Synechocystis sp. PCC6803 (enzyme, Synechocystis sp. PCC 6803, UniProt Q55487 1-318, looked up)
chain: MTIELSIVIPMYNEEDNLEHLFARLLEVLTPLKITYEIICVNDGSKDKTLKQLIDCYQSNRQIKIVNLSRNFGKEIALSAGIDYAQGNAVIPIDADLQDPPELIHELVDKWREGYDIVYATRRSRQGETWVKQFTAKMFYKVIGRMTEIKIPPNTGDFRLMDRKVVNAIKQLPERTRFMKGLFAWVGYRQTFVLFDREPRFQGQTKWNYWKLWNFALDGIFSFSLLPLKVWTYLGSIISLLSLAYASFLILKTITLGVDVPGYASLMVAILFLGGVQLISLGVIGEYLGRVYEEVKARPLYLVSDLWGLEYLPLEKLN
notes: GtrB, polyisoprenyl-phosphate glycosyltransferase, Synechocystis sp; PCC 6803, UniProt Q55487; open reading frame amplified from genomic DNA; a TEV protease cleavage site stands between the tag and the protein; Vector pMCSG7; A selenomethionine-substituted form was used for phasing only; In the deposited coordinates each protomer is divided into two chains; also called GtrBSyn; WT
The stoichiometry N is a count of units in the complex or per binding partner. B1: the “stoichiometry N” value came out at 4.

B2: GtrB from Synechocystis sp. PCC6803, point mutant F215A (enzyme, Synechocystis sp. PCC 6803, UniProt Q55487 1-318, looked up)
chain: MTIELSIVIPMYNEEDNLEHLFARLLEVLTPLKITYEIICVNDGSKDKTLKQLIDCYQSNRQIKIVNLSRNFGKEIALSAGIDYAQGNAVIPIDADLQDPPELIHELVDKWREGYDIVYATRRSRQGETWVKQFTAKMFYKVIGRMTEIKIPPNTGDFRLMDRKVVNAIKQLPERTRFMKGLFAWVGYRQTFVLFDREPRFQGQTKWNYWKLWNAALDGIFSFSLLPLKVWTYLGSIISLLSLAYASFLILKTITLGVDVPGYASLMVAILFLGGVQLISLGVIGEYLGRVYEEVKARPLYLVSDLWGLEYLPLEKLN
notes: GtrB, Synechocystis sp; PCC 6803, UniProt Q55487, same construct as m1 with the point mutation F215A (QuikChange); also called GtrB (F215A); source: E. coli, purified and crystallized in the same way as the wild type
Consider B2, for which the binding result is reported as “binds”.
